In US20250154231A1 one finds IC50, pseudoviral neutralization, pseudovirus neutralisation IC50 and IC50 (ug/ml), pseudovirus data, which are given here for 17 substances.

Common to all, as to assay: cell-based or functional assay
Experiment [1] has as its target SARS-CoV-2 spike (S) protein, synthetic variant "BA.4+all".
Experiment [2] has as its target SARS-CoV-2 spike (S) protein, Omicron BA.2 + D339H (SARS-CoV-2) (UniProt P0DTC2).
The target in experiment [3] is SARS-CoV-2 spike (S) protein, Omicron BA.2 + N460K (SARS-CoV-2) (UniProt P0DTC2).
For experiment [4], the target named is SARS-CoV-2 spike (S) protein, Omicron BA.2 + G446S (SARS-CoV-2) (UniProt P0DTC2).
Experiment [5] addresses SARS-CoV-2 spike (S) protein, Omicron BA.2 + N460K (SARS-CoV-2) (UniProt P0DTC2). This is another data set of the same source.
Experiment [6] concerns the target SARS-CoV-2 Omicron BA.1 spike (S) protein, pseudovirus construct (SARS-CoV-2) (UniProt P0DTC2).
The target of experiment [7] is SARS-CoV-2 Omicron BA.3 spike (S) protein, pseudovirus construct (SARS-CoV-2) (UniProt P0DTC2).
Experiment [8] deals with SARS-CoV-2 Victoria spike (S) protein (SARS-CoV-2) (UniProt P0DTC2).
For experiment [9], the target named is SARS-CoV-2 Omicron BA.1.1 spike (S) protein, pseudovirus construct (SARS-CoV-2) (UniProt P0DTC2).
Experiment [10] deals with SARS-CoV-2 Omicron BA.2 spike (S) protein, pseudovirus construct (SARS-CoV-2) (UniProt P0DTC2).

Where two headings read alike, the source gives them in different places.

Sequence of Omi-42 (antibody) (VH): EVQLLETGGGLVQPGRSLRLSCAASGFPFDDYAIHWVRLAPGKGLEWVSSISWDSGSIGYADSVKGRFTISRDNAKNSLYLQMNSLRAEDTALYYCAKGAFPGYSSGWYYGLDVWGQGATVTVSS
Sequence of Omi-42 (antibody) (VL): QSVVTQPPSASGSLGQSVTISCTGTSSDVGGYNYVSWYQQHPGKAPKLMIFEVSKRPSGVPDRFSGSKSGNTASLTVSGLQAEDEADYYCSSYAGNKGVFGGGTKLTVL
Sequence of Omi-18 (antibody) (VH): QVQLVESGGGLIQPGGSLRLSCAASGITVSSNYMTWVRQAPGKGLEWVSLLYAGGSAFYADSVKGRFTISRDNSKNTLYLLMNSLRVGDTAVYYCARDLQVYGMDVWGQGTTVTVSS
Sequence of Omi-18 (antibody) (VL): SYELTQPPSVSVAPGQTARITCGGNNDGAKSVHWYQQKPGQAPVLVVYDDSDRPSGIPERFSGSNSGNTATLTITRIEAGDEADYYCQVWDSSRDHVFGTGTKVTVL
Sequence of Omi-29 (antibody) (VH): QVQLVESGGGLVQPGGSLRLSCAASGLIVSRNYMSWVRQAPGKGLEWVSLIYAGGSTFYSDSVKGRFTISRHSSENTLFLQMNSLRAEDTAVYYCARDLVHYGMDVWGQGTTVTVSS
Sequence of Omi-29 (antibody) (VL): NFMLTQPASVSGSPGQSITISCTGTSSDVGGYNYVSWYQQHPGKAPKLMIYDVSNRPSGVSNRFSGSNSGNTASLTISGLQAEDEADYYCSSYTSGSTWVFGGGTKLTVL
Sequence of Omi-32 (antibody) (VH): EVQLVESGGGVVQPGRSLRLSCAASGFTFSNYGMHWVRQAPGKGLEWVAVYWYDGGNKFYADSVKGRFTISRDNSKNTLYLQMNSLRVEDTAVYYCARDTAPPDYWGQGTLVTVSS
Sequence of Omi-32 (antibody) (VL): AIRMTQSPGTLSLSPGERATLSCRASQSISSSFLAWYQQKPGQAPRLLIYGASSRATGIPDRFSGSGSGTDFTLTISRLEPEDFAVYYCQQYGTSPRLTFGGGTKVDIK
Sequence of Omi-12 (antibody) (VH): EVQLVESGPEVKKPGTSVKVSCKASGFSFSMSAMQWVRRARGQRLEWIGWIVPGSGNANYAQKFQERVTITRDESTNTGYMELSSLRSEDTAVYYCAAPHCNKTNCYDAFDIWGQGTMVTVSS
Sequence of Omi-12 (antibody) (VL): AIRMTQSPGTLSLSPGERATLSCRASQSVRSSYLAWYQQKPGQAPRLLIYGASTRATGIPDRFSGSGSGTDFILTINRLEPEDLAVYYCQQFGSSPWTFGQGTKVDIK
Sequence of AZD8895 (antibody) (VH): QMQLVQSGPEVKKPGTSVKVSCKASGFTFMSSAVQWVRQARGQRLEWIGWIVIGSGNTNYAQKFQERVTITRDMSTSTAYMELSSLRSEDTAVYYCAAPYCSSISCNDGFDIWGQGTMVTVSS
Sequence of AZD8895 (antibody) (VL): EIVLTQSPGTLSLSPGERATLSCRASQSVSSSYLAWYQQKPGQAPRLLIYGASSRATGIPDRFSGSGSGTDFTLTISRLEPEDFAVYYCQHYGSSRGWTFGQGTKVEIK

In [1], Ly-CoV555 (antibody) had an IC50, pseudoviral neutralization greater than 10 µg/mL.
Omi-12 (antibody): the pseudovirus neutralisation IC50 in [2] was 0.003 µg/mL; in experiment [3] it was 0.011 µg/mL; in [4] it was 0.003 µg/mL; in experiment [5], 0.011 µg/mL. Besides, the IC50, pseudoviral neutralization in experiment [1] is greater than 10 µg/mL.
Regarding Omi-42 (antibody), the pseudovirus neutralisation IC50 in [2] came to 0.011 µg/mL; in [3] it was 0.007 µg/mL; in experiment [4], 0.016 µg/mL; in experiment [5], 0.007 µg/mL. In experiment [1], this substance returned an IC50, pseudoviral neutralization of 0.008 µg/mL.
With “AZD7442 (a combination of AZD8895 and AZD1061)”, in [1], the IC50, pseudoviral neutralization was greater than 10 µg/mL.
As for LY-CoV1404 (bebtelovimab) (antibody), the IC50, pseudoviral neutralization in experiment [1] was greater than 10 µg/mL.
In the case of Known Antibody E (AZD7442), the IC50 (ug/ml), pseudovirus in experiment [6] turned out to be 0.232 µg/mL; in experiment [7], 0.065 µg/mL; in experiment [8], 0.001 µg/mL; in [9] it was 0.806 µg/mL; in experiment [10], 0.008 µg/mL.
Omi-29 (antibody): the pseudovirus neutralisation IC50 in experiment [2] is 0.018 µg/mL; in experiment [3], greater than 10 µg/mL; in experiment [4], 0.024 µg/mL; in [5] it was greater than 10 µg/mL. In addition, the IC50, pseudoviral neutralization in experiment [1] is greater than 10 µg/mL.
As to S309 (antibody), in experiment [1], the IC50, pseudoviral neutralization turned out to be 0.584 µg/mL.
Substance AZD1061 (antibody) showed an IC50, pseudoviral neutralization in [1] greater than 10 µg/mL.
ADG20 (antibody) gave an IC50, pseudoviral neutralization in [1] greater than 10 µg/mL.
Regarding Omi-18 (antibody), the pseudovirus neutralisation IC50 in [2] is 0.003 µg/mL; in experiment [3] it was 0.014 µg/mL; in experiment [4] it was 0.003 µg/mL; in experiment [5] it was 0.014 µg/mL. In [1], the IC50, pseudoviral neutralization came to 3.61 µg/mL.
In experiment [1], AZD8895 (antibody) registered an IC50, pseudoviral neutralization greater than 10 µg/mL.
On to Omi-03 (antibody), for which the pseudovirus neutralisation IC50 was determined as 0.006 µg/mL in experiment [2], 0.401 µg/mL in [3], 0.005 µg/mL in experiment [4] and 0.401 µg/mL in experiment [5]. In [1], this substance displayed an IC50, pseudoviral neutralization of 0.432 µg/mL.
For the substance Omi-32 (antibody), the pseudovirus neutralisation IC50 in experiment [2] amounted to 0.683 µg/mL; in experiment [3] it was 2.34 µg/mL; in experiment [4], 0.33 µg/mL; in experiment [5], 2.34 µg/mL. In experiment [1], the IC50, pseudoviral neutralization is greater than 10 µg/mL.
As to REGN10933 (antibody), in [1], the IC50, pseudoviral neutralization was greater than 10 µg/mL.
Turning to Ly-CoV16 (antibody), the IC50, pseudoviral neutralization in experiment [1] was greater than 10 µg/mL.
On to REGN10987 (antibody), for which the IC50, pseudoviral neutralization in experiment [1] was greater than 10 µg/mL.
